Measured values from paper PMC7563181.

Key:
[1] = target: membrane-bound GFP (pHR_EGFPligand)
[2] = target: membrane-bound GFP (pHR_EGFPligand); remark: listed apart in the source
[3] = target: membrane-bound GFP (pHR_EGFPligand); remark: listed apart in the source
[4] = target: membrane-bound GFP (pHR_EGFPligand); remark: listed apart in the source
[5] = target: membrane-bound GFP (pHR_EGFPligand); remark: listed apart in the source
[6] = target: membrane-bound GFP (pHR_EGFPligand); remark: listed apart in the source
[7] = target: membrane-bound GFP (pHR_EGFPligand); remark: listed apart in the source

- % dsRed-Express-positive receiver cells after 10, 30, 60, 120 and 180 min of contact with antigen-expressing sender cells (ratio 1:1), flow cytometry 48 h later; 7.3% to 37.3% [1]: 37.3%
- % Activation in Bulk Population (dsRed-Express, 60 min, sender:receiver 1:1) [2]: 31.3%
- % Activation in Clonal Cell Lines (dsRed-Express, 60 min, sender:receiver 1:1) [2]: 73.5%
- Overall efficiency of indel formation at the CXCR4 locus (TIDE) after activation of receiver cells by GFP sender cells (1:1, 60 min), Experiment 1 [3]: 34.5%
- Overall efficiency of indel formation at the CXCR4 locus (TIDE) after activation of receiver cells by GFP sender cells (1:1, 60 min), Experiment 2 [3]: 41.3%
- Overall efficiency of indel formation at the CXCR4 locus (TIDE) after activation of receiver cells by GFP sender cells (1:1, 60 min), Experiment 3 [3]: 45.4%
- synNotch-mediated fluorophore expression, bulk population before clonal expansion (differs from Table 2) [4]: 34.8%
- synNotch-mediated fluorophore expression, clonal cell line (differs from Table 2) [4]: 73.6%
- % dsRed-Express-positive receiver cells after co-culture with antigen-expressing sender cells at three sender-receiver ratios (5:1, 1:1, 1:5), flow cytometry after 48 h; 7.6% to 40.1% [5]: 40.1%
- % dsRed-Express-positive cells at the first sort of the transduced bulk receiver population after activation with antigen-expressing cells (flow cytometry) [6]: 10.3%
- Indel formation frequency at the CXCR4 locus (TIDE) after activation by GFP sender cells, receiver cells kept in low FBS (G1 arrest) [7]: 37.4%
- Indel formation frequency at the CXCR4 locus (TIDE) after activation by GFP sender cells, receiver cells kept without FBS (G1 arrest) [7]: 31.4%
- Indel formation frequency at the CXCR4 locus (TIDE) after activation by GFP sender cells, receiver cells treated with nocodazole (G2/M arrest) [7]: 34.4%
Substance: LaG17_synNotch_TetRVP64 (synNotch receptor against GFP with a tTA intracellular domain)
